Reference: patent US20140093973A1 (BOARD OF REGENTS OF THE UNIVERSITY OF OKLAHOMA, published 2014)
Where two headings read alike, the source gives them in different places. Ends that are not written are not given here.

Assays:
[1] = biological target: T1, soluble HLA-A*2902 (human); assay: FP competition against 1.5 nM FITC-labeled P2(A*0101), 49.9 µg/ml sHLA A*2902T (1224)
T1 construct: Member of the panel of 53 single-specificity sHLA

[2] = biological target: T2, soluble HLA-A*0101 (human); assay: FP competition against 1.6 nM FITC-labeled P2(A*0101), 41.0 µg/ml sHLA A*0101T (C22)
T2 construct: Member of the panel of 53 single-specificity sHLA

[3] = biological target: B*0702T (human, UniProt P61769); assay: FP competition against 1.9 nM FITC-labeled P1(B*0702), 40 µg/ml sHLA B*0702T (955)
[4] = biological target: T3, soluble HLA-A*0301 (human); assay: FP screen of 53 sHLA with FITC-peptide
T3 construct: Member of the panel of 53 single-specificity sHLA

[5] = biological target: T4, soluble HLA-B*1501 (human); assay: FP screen of 53 sHLA with FITC-peptide
T4 construct: Member of the panel of 53 single-specificity sHLA

[6] = biological target: T5, soluble HLA-A*3402 (human); assay: FP screen of 53 sHLA with FITC-peptide
T5 construct: Member of the panel of 53 single-specificity sHLA

[7] = biological target: T6, soluble HLA-A*6601 (human); assay: FP screen of 53 sHLA with FITC-peptide
T6 construct: Member of the panel of 53 single-specificity sHLA

[8] = biological target: T1, soluble HLA-A*2902; assay: FP screen of 53 sHLA with FITC-peptide
[9] = biological target: T7, soluble HLA-A*2601 (human); assay: FP screen
T7 construct: Member of the panel of 53 single-specificity sHLA

[10] = biological target: T8, soluble HLA-B*1512 (human); assay: FP screen
T8 construct: Member of the panel of 53 single-specificity sHLA

[11] = biological target: T9, soluble HLA-A*2301 (human); assay: FP screen
T9 construct: Member of the panel of 53 single-specificity sHLA

[12] = biological target: T10, soluble HLA-B*4002 (human); assay: FP screen
T10 construct: Member of the panel of 53 single-specificity sHLA

[13] = biological target: T11, soluble HLA-B*4001 (human); assay: FP screen
T11 construct: Member of the panel of 53 single-specificity sHLA

[14] = biological target: T12, soluble HLA-B*1801 (human); assay: FP screen
T12 construct: Member of the panel of 53 single-specificity sHLA

[15] = biological target: T13, soluble HLA-A*2402 (human); assay: FP screen
T13 construct: Member of the panel of 53 single-specificity sHLA

[16] = biological target: T14, soluble HLA-A*3601 (human); assay: FP screen
T14 construct: Member of the panel of 53 single-specificity sHLA

[17] = biological target: T15, soluble HLA-B*4501 (human); assay: FP screen
T15 construct: Member of the panel of 53 single-specificity sHLA

[18] = biological target: T2, soluble HLA-A*0101; assay: FP screen
[19] = biological target: T16, soluble HLA-A*4301 (sHLA-A*4301) (human); assay: FP screen
T16 construct: Recombinant soluble class I with endogenous peptides, made as m1

[20] = biological target: T17, soluble HLA-B*2705 (sHLA-B*2705) (human); assay: FP screen
T17 construct: Recombinant soluble class I with endogenous peptides, made as m1; negative control

[21] = biological target: T18, soluble HLA-A*3002 (human); assay: FP screen
T18 construct: Member of the panel of 53 single-specificity sHLA

[22] = biological target: soluble HLA-A*0201 (sHLA-A*0201) (human); assay: FP screen
[23] = biological target: T19, soluble HLA-B*4402 (human); assay: FP screen
T19 construct: Member of the panel of 53 single-specificity sHLA

[24] = biological target: T20, soluble HLA-A*6901 (sHLA-A*6901) (human); assay: FP screen
T20 construct: Recombinant soluble class I with endogenous peptides, made as m1

[25] = biological target: T3, soluble HLA-A*0301; assay: FP competition against 1.8 nM FITC-labeled P1(A*0301), 42.1 µg/ml sHLA A*0301T (2798)
[26] = biological target: T13, soluble HLA-A*2402; assay: FP screen of 53 sHLA with FITC-peptide
[27] = biological target: T7, soluble HLA-A*2601; assay: FP screen; remark: listed apart in the source
[28] = biological target: T21, soluble HLA-A*1102 (sHLA-A*1102) (human, UniProt P04439 25-308; P61769 21-119); assay: FP screen
T21 construct: Recombinant soluble class I with endogenous peptides, made as m1

[29] = biological target: T8, soluble HLA-B*1512; assay: FP screen; remark: listed apart in the source
[30] = biological target: T3, soluble HLA-A*0301; assay: FP screen
[31] = biological target: T10, soluble HLA-B*4002; assay: FP screen; remark: listed apart in the source
[32] = biological target: T12, soluble HLA-B*1801; assay: FP screen; remark: listed apart in the source
[33] = biological target: T22, soluble HLA-B*1302 (human); assay: FP screen
T22 construct: Member of the panel of 53 single-specificity sHLA

[34] = biological target: T14, soluble HLA-A*3601; assay: FP screen; remark: listed apart in the source
[35] = biological target: T5, soluble HLA-A*3402; assay: FP screen
[36] = biological target: T2, soluble HLA-A*0101; assay: FP screen; remark: listed apart in the source
[37] = biological target: T16, soluble HLA-A*4301 (sHLA-A*4301); assay: FP screen; remark: listed apart in the source
[38] = biological target: T17, soluble HLA-B*2705 (sHLA-B*2705); assay: FP screen; remark: listed apart in the source
[39] = biological target: T18, soluble HLA-A*3002; assay: FP screen; remark: listed apart in the source
[40] = biological target: T23, soluble HLA-A*6801 (sHLA-A*6801) (human); assay: FP screen
T23 construct: Recombinant soluble class I with endogenous peptides, made as m1

[41] = biological target: soluble HLA-A*0201 (sHLA-A*0201) (human); assay: FP screen; remark: listed apart in the source
[42] = biological target: T19, soluble HLA-B*4402; assay: FP screen; remark: listed apart in the source
[43] = biological target: T8, soluble HLA-B*1512; assay: FP screen; remark: listed apart in the source
[44] = biological target: T3, soluble HLA-A*0301; assay: FP screen; remark: listed apart in the source
[45] = biological target: T9, soluble HLA-A*2301; assay: FP screen; remark: listed apart in the source
[46] = biological target: T10, soluble HLA-B*4002; assay: FP screen; remark: listed apart in the source
[47] = biological target: T11, soluble HLA-B*4001; assay: FP screen; remark: listed apart in the source
[48] = biological target: T12, soluble HLA-B*1801; assay: FP screen; remark: listed apart in the source
[49] = biological target: T13, soluble HLA-A*2402; assay: FP screen; remark: listed apart in the source
[50] = biological target: T22, soluble HLA-B*1302; assay: FP screen; remark: listed apart in the source
[51] = biological target: T15, soluble HLA-B*4501; assay: FP screen; remark: listed apart in the source
[52] = biological target: T17, soluble HLA-B*2705 (sHLA-B*2705); assay: FP screen; remark: listed apart in the source
[53] = biological target: T18, soluble HLA-A*3002; assay: FP screen; remark: listed apart in the source
[54] = biological target: T23, soluble HLA-A*6801 (sHLA-A*6801); assay: FP screen; remark: listed apart in the source
[55] = biological target: T6, soluble HLA-A*6601; assay: FP screen
[56] = biological target: soluble HLA-A*0201 (sHLA-A*0201) (human); assay: FP screen; remark: listed apart in the source
[57] = biological target: T19, soluble HLA-B*4402; assay: FP screen; remark: listed apart in the source
[58] = biological target: T20, soluble HLA-A*6901 (sHLA-A*6901); assay: FP screen; remark: listed apart in the source
[59] = biological target: T7, soluble HLA-A*2601; assay: FP screen of 53 sHLA with FITC-peptide
[60] = biological target: T4, soluble HLA-B*1501; assay: FP screen of 53 sHLA with FITC-peptide; remark: listed apart in the source
[61] = biological target: T14, soluble HLA-A*3601; assay: FP screen of 53 sHLA with FITC-peptide
[62] = biological target: T5, soluble HLA-A*3402; assay: FP screen of 53 sHLA with FITC-peptide; remark: listed apart in the source
[63] = biological target: T2, soluble HLA-A*0101; assay: FP screen of 53 sHLA with FITC-peptide
[64] = biological target: T1, soluble HLA-A*2902; assay: FP screen of 53 sHLA with FITC-peptide; remark: listed apart in the source

## ATDFKFAMY [C1(A*0101)]
[1]
  IC50: 8630 nM
[2]
  IC50: 1570 nM

## LVMAPRTVL
[3]
  IC50: 276 nM

## SLFRAVIKK (also: FITC-labeled, position not given here) [SLFRAVIKK, FITC-labeled A3-like peptide]
[4]
  binding result: binds
[5]
  binding result: binds
[6]
  binding result: binds
[7]
  binding result: binds
[8]
  binding result: binds
[9]
  binding result: no binding (tested: 100 ug/ml sHLA)
[10]
  binding result: no binding (tested: 100 ug/ml sHLA)
[11]
  binding result: no binding (tested: 100 ug/ml sHLA)
[12]
  binding result: no binding (tested: 100 ug/ml sHLA)
[13]
  binding result: no binding (tested: 100 ug/ml sHLA)
[14]
  binding result: no binding (tested: 100 ug/ml sHLA)
[15]
  binding result: no binding (tested: 100 ug/ml sHLA)
[16]
  binding result: no binding (tested: 100 ug/ml sHLA)
[17]
  binding result: no binding (tested: 100 ug/ml sHLA)
[18]
  binding result: no binding (tested: 100 ug/ml sHLA)
[19]
  binding result: no binding (tested: 100 ug/ml sHLA)
[20]
  binding result: no binding (tested: 100 ug/ml sHLA)
[21]
  binding result: no binding (tested: 100 ug/ml sHLA)
[22]
  binding result: no binding (tested: 100 ug/ml sHLA)
[23]
  binding result: no binding (tested: 100 ug/ml sHLA)
[24]
  binding result: no binding (tested: 100 ug/ml sHLA)

## SLFRAVITK [C2(A*0301)]
[25]
  IC50: 518 nM

## KYPENKFLL (also: FITC-labeled, position not given here) [KYPENKFLL, FITC-labeled A24-like peptide]
[26]
  binding result: binds
[27]
  binding result: no binding (tested: 100 ug/ml sHLA)
[28]
  binding result: no binding (tested: 100 ug/ml sHLA)
[29]
  binding result: no binding (tested: 100 ug/ml sHLA)
[30]
  binding result: no binding (tested: 100 ug/ml sHLA)
[31]
  binding result: no binding (tested: 100 ug/ml sHLA)
[32]
  binding result: no binding (tested: 100 ug/ml sHLA)
[33]
  binding result: no binding (tested: 100 ug/ml sHLA)
[34]
  binding result: no binding (tested: 100 ug/ml sHLA)
[35]
  binding result: no binding (tested: 100 ug/ml sHLA)
[36]
  binding result: no binding (tested: 100 ug/ml sHLA)
[37]
  binding result: no binding (tested: 100 ug/ml sHLA)
[38]
  binding result: no binding (tested: 100 ug/ml sHLA)
[39]
  binding result: no binding (tested: 100 ug/ml sHLA)
[40]
  binding result: no binding (tested: 100 ug/ml sHLA)
[41]
  binding result: no binding (tested: 100 ug/ml sHLA)
[42]
  binding result: no binding (tested: 100 ug/ml sHLA)

## YTDGVPLKY (also: FITC-labeled, position not given here) [YTDGVPLKY, FITC-labeled A1-like peptide]
[43]
  binding result: no binding (tested: 100 ug/ml sHLA)
[44]
  binding result: no binding (tested: 100 ug/ml sHLA)
[45]
  binding result: no binding (tested: 100 ug/ml sHLA)
[46]
  binding result: no binding (tested: 100 ug/ml sHLA)
[47]
  binding result: no binding (tested: 100 ug/ml sHLA)
[48]
  binding result: no binding (tested: 100 ug/ml sHLA)
[49]
  binding result: no binding (tested: 100 ug/ml sHLA)
[50]
  binding result: no binding (tested: 100 ug/ml sHLA)
[51]
  binding result: no binding (tested: 100 ug/ml sHLA)
[52]
  binding result: no binding (tested: 100 ug/ml sHLA)
[53]
  binding result: no binding (tested: 100 ug/ml sHLA)
[54]
  binding result: no binding (tested: 100 ug/ml sHLA)
[55]
  binding result: no binding (tested: 100 ug/ml sHLA)
[56]
  binding result: no binding (tested: 100 ug/ml sHLA)
[57]
  binding result: no binding (tested: 100 ug/ml sHLA)
[58]
  binding result: no binding (tested: 100 ug/ml sHLA)
[59]
  binding result: binds
[60]
  binding result: binds
[61]
  binding result: binds
[62]
  binding result: binds
[63]
  binding result: binds
[64]
  binding result: binds
